One molecule from patent US20230002494A1 (SANYOU BIOPHARMACEUTICALS, published 2023) can be followed below.

Assay [1] has as its target T1, human PD-L1 (full-length, on cells) (human, UniProt Q9NZQ7 19-290).
T1 construct: whole, on cells; Expressed on CHO-s cells; also called human PD-L1-CHO; PD-L1-CHO
The assay is described as follows: FACS competition, human PD-L1-CHO cells, competitor biotin-labeled CD80 1 µg/mL.

For assay [2], the target named is T1, human PD-L1 (full-length, on cells). Put plainly: FACS, human PD-L1-CHO cells.
Assay [3] concerns the target T2, rhesus monkey PD-L1 (full-length, on CHO-s cells) (rhesus monkey, UniProt F6VEW6 19-290).
T2 construct: whole, on cells; also called monkey PD-L1-CHO
The assay is described as follows: FACS, monkey PD-L1-CHO cells. The source says:
In order to evaluate the cross-reactivity of the VHH-Fc candidate antibodies to monkey PD-L1 and mouse PD-L1, an FACS method is used to detect the binding activity thereof to the mouse and rhesus monkey PD-L1 protein on cells.

For assay [4], the target named is T3, B7-H2 protein, Sino Biological 11559-H08H (UniProt O75144 19-258).
T3 construct: Bought protein
T3 sequence (looked up): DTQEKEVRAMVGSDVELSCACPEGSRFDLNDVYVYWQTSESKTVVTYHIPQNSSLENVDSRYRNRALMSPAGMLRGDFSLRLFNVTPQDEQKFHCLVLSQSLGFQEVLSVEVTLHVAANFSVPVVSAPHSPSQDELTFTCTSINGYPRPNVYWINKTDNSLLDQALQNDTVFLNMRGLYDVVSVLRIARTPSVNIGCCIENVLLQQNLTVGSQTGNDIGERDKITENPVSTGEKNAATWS
The assay is described as follows: ELISA, plate coated with 2 µg/mL protein, anti-human IgG Fc-HRP, OD450. On the set-up: concentration or dose not given beside the values. How it is done: (§1) The specific method is as follows:
(§2) one day prior to the experiment, 30 μL of protein diluents such as B7-H1 (i.e., PDL1), B7-H2, B7-H3, B7-H4 and B7-DC (the above-mentioned proteins are all purchased from Sino Biological Co., Ltd., with Cat. Nos. 10084-HNAH, 11559-H08H, 11188-H08H, 10738-H08H and 10292-H08H-B, respectively) are added to an ELISA plate at a final concentration of 2 μg/mL, and incubated at 4° C. overnight; the next day, the ELISA plate is rinsed 3 times with PBST, then blocked with 150 μL of 5% PBSM, and incubated at room temperature for 2 hours; the ELISA plate is rinsed 3 times with PBST again, and then 30 μL of candidate antibody and control antibody diluents are added thereto, and the plate is incubated at room temperature for 1 hour; the plate is rinsed 3 times with PBST, and an anti-human IgG Fc-HRP second antibody diluted at 1:7000 is added thereto (30 μL/well), and the plate is incubated at room temperature for 30 minutes; the plate is rinsed 6 times with PBST, then TMB is added thereto for color development, and finally, 2M HCl is added to stop the reaction.
In general terms: In an ELISA, binding on a coated surface is turned into a signal by an enzyme label.

Assay [5] deals with T4, B7-H4 protein, Sino Biological 10738-H08H (UniProt Q7Z7D3 25-258).
T4 construct: Bought protein
T4 sequence (looked up): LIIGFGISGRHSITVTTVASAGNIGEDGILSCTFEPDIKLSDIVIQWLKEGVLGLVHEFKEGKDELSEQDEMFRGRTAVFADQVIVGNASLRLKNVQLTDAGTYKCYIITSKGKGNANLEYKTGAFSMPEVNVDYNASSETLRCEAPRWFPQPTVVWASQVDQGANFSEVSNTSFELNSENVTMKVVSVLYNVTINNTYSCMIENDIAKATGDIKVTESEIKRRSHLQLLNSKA
Described as above. On the set-up: concentration or dose not given beside the values. Here is the method:
as §1, §2

The target in assay [6] is T5, B7-DC protein, Sino Biological 10292-H08H-B (UniProt Q9BQ51 20-219).
T5 construct: Bought protein
T5 sequence (looked up): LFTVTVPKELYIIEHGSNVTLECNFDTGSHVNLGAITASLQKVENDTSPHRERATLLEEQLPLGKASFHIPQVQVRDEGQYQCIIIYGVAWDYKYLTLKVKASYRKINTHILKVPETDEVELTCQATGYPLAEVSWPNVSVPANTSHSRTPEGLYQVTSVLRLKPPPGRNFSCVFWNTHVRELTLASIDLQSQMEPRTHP
The description is as above. On the set-up: concentration or dose not given beside the values. How it is done:
as §1, §2

Assay [7] concerns the target T6, B7-H3 protein, Sino Biological 11188-H08H (UniProt Q5ZPR3 29-461).
T6 construct: Bought protein
T6 sequence (looked up): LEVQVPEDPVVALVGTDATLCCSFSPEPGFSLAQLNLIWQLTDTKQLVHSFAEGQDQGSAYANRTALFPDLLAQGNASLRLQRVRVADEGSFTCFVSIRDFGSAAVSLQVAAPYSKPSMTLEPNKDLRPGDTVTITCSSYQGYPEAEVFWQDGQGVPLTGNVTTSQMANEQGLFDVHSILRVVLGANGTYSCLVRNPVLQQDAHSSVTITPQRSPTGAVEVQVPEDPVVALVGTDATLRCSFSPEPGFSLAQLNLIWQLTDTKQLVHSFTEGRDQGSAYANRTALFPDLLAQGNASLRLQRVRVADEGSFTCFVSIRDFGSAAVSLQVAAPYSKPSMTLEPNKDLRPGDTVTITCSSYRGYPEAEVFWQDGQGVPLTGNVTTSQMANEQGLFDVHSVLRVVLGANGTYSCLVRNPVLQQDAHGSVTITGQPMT
Described as above. On the set-up: concentration or dose not given beside the values. How it is done: as §1, §2

The target in assay [8] is T7, mouse PD-L1 (full-length, on CHO-s cells) (mouse, UniProt Q9EP73 19-290).
T7 construct: whole, on cells; also called mouse PD-L1-CHO
Put plainly: FACS, mouse PD-L1-CHO cells. A general note: In flow cytometry, cells or beads pass a laser one at a time.

For assay [9], the target named is T1, human PD-L1 (full-length, on cells). The assay is described as follows: FACS on human PD-L1-CHO cells, PE anti-human IgG Fc. An excerpt: 1) collecting the cultured human PD-L1-CHO cells, centrifuging the collected cells at 300 g to remove the supernatant, resuspending the cells in a formulated FACS buffer and counting the cells, and adjusting the density of the cell suspension to 2×10⁶ cells/mL;

Assay [10] has the same target. The assay is described as follows: FACS competition, human PD-L1-CHO cells, competitor biotin-labeled PD-1-Fc 1 µg/mL.

T1 sequence (Q9NZQ7 19-290): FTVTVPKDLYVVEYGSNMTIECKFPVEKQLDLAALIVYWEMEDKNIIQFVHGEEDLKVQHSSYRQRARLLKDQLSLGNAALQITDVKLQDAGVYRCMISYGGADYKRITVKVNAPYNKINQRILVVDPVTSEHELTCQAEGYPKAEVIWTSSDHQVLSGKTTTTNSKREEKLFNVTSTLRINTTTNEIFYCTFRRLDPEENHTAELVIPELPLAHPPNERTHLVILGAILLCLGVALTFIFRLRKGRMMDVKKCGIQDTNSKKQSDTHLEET
T7 sequence (Q9EP73 19-290): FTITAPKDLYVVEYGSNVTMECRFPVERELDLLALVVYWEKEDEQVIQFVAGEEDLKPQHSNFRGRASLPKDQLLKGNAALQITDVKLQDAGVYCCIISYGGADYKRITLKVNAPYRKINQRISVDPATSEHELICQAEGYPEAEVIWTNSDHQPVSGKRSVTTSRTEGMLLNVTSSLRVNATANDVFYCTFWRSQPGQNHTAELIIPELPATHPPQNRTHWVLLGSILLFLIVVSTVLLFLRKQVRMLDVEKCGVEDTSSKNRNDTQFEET

B1: NB22D-21 chimeric VHH-Fc antibody (Fc fusion)
chain: EVQVQESGGGLVQAGGSLRLSCAHSRTDSNINGMHWYRQAPGKQRDWVGTIFIDGNTIVTDSVKGRFTISRDNAKNTLYLQMNTLKPEDTAVYFCAADVSGYGRAWGQGTQVTVSS
notes: also called parental antibody NB22D-21; parent molecule; not shown: human IgG1 Fc fragment, its N-terminus linked to the C-terminus of the VHH
On to B1, for which the IC50 (as a rule, the concentration that gives 50% inhibition) was determined as 0.708 µg/mL in [1] and 0.41 µg/mL in assay [10]. For the same molecule, the figures for the EC50 in assay [2] and in assay [3] were 0.39 µg/mL and 0.25 µg/mL, respectively. Moreover, the binding result was “no binding (tested: 10.00 (no unit on the sheet))” in assay [4]; “no binding (tested: 10.00 (no unit on the sheet))” in assay [5]; “no binding (tested: 10.00 (no unit on the sheet))” in [6]; “no binding (tested: 10.00 (no unit on the sheet))” in assay [7]; “binds” in assay [8]. Further, the concentration for a half-maximal effect (EC50 (read off the curve)) (commonly the concentration at which the effect is half-maximal) in [9] is roughly 0.1 µg/mL.
